Results on eleven molecules are retold here after patent publication US20230183352A1 (published 2023).

Sequences and labels used below:
B1: QP14441441 (antibody, V domains shown)
VH: QVQLVQSGAEVKKPGASVKVSCKASGYAFSSYWMNWVRQAPGQGLEWIGQIYPGNGDTTYNGKFKGRVTMTADKSTSTVYMELSSLRSEDTAVYYCARFVKGNAMDYWGQGTLVTVSS
VL: DIVMTQSPDSLAVSLGERATISCKSSQSLLNSGNQKNYLTWYQQKPGQPPKLLIYWASTRESGVPDRFSGSGSGIDFTLTISSVQAEDVAVYYCQNAYSYPFTFGQGTKLEIKR
B2: QP14451442 (antibody, V domains shown)
VH: QVQLVQSGAEVKKPGASVKVSCKASGYAFSSYWMNWVRQAPGQGLEWIGQIYPGNGDTTYNGKFKGRVTMTADKSTSTVYMELSSLRSEDTAVYFCARFVKGNAMDYWGQGTLVTVSS
VL: DIVMTQSPDSLAVSLGERATISCKSSQSLLNSGNQKNYLTWYQQKPGQPPKMLIYWASTRESGVPDRFSGSGSGIDFTLTISSVQAEDVAVYYCQNAYSYPFTFGQGTKLEIKR
B3: QP14451440 (antibody, V domains shown)
VH: QVQLVQSGAEVKKPGASVKVSCKASGYAFSSYWMNWVRQAPGQGLEWIGQIYPGNGDTTYNGKFKGRVTMTADKSTSTVYMELSSLRSEDTAVYFCARFVKGNAMDYWGQGTLVTVSS
VL: DIVMTQSPDSLAVSLGERATISCKSSQSLLNSGNQKNYLTWYQQKPGQPPKLLIYWASTRESGVPDRFSGSGSGTDFTLTISSLQAEDVAVYYCQNAYSYPFTFGQGTKLEIKR
B4: QP14371435 (antibody, V domains shown)
VH: EVQLVESGGGLVKPGGSLRLSCAASGFTFSNYAMSWVRQAPGKGLEWVASIISGGRTYYLDSEKGRFTISRDNAKNSLYLQMNSLRAEDTAVYYCTRIYYGNSFDYWGQGTLVTVSS
VL: DIVMTQSPDSLAVSLGERATISCKSSQSLLNSGNQKNYLTWYQQKPGQPPKLLIYWASTRESGVPDRFTGSGSGTDFTLTISSLQAEDVAVYYCQNDYSYPFTFGQGTKLEIKR
B5: QP14361435 (antibody, V domains shown)
VH: EVQLVESGGGLVKPGGSLRLSCAASGFTFSNYAMSWVRQAPGKGLEWVSSIISGGRTYYLDSEKGRFTISRDNAKNSLYLQMNSLRAEDTAVYYCTRIYYGNSFDYWGQGTLVTVSS
VL: DIVMTQSPDSLAVSLGERATISCKSSQSLLNSGNQKNYLTWYQQKPGQPPKLLIYWASTRESGVPDRFTGSGSGTDFTLTISSLQAEDVAVYYCQNDYSYPFTFGQGTKLEIKR
B6: QP14361434 (antibody, V domains shown)
VH: EVQLVESGGGLVKPGGSLRLSCAASGFTFSNYAMSWVRQAPGKGLEWVSSIISGGRTYYLDSEKGRFTISRDNAKNSLYLQMNSLRAEDTAVYYCTRIYYGNSFDYWGQGTLVTVSS
VL: DIVMTQSPDSLAVSLGERATISCKSSQSLLNSGNQKNYLTWYQQKPGQPPKLLIYWASTRESGVPDRFSGSGSGTDFTLTISSLQAEDVAVYYCQNDYSYPFTFGQGTKLEIK
B7: QP14381434 (antibody, V domains shown)
VH: EVQLVESGGGLVKPGGSLRLSCAASGFTFSNYAMSWVRQAPGKRLEWVASIISGGRTYYLDSEKGRFTISRDNAKNSLYLQMNSLRAEDTAVYYCTRIYYGNSFDYWGQGTLVTVSS
VL: DIVMTQSPDSLAVSLGERATISCKSSQSLLNSGNQKNYLTWYQQKPGQPPKLLIYWASTRESGVPDRFSGSGSGTDFTLTISSLQAEDVAVYYCQNDYSYPFTFGQGTKLEIK
B8: QP207208 (antibody, V domains shown)
VH: EVQLQQSGPELVKPGASVKMSCKASGYTFTSYIMHWVKQKPGQGLEWIGYINPYNDGTKYNEKFKGKATLTSDKSSSTVYMELSSLTSEDSAVYCCARLGFTTRNAMDYWGQGTSVTVSS
VL: DIVMTQSPSSLSVSAGEKVTMNCKSSQSLLNSGNQKNYLAWYQQKPGQPPKLLIYGASTRESGVPDRFTGSGSGTDFTLTISSVQAEDLAVYYCQNDHSYPFTFGSGTKLEIK
B9: QP190191 (antibody, V domains shown)
VH: EVKLVESGGGLVKPGGSLKLSCAASGFTFSNYAMSWVRQTPEKRLEWVASIISGGRTYYLDSEKGRFTISRDNARNNLYLQMSSLRSEDTAMYYCTRIYYGNSFDYWGQGTTLTVSS
VL: DIVMTQSPSSQTVTAGEKVTMSCKSSQSLLNSGNQKNYLTWYQQKPGQPPKLLIYWASTRESGVPDRFTGSGSGTDFTLTISNMQAEDLAVYYCQNDYSYPFTFGSGTKLEIK
B10: QP14641461 (antibody, V domains shown)
VH: EVQLVQSGAEVKKPGASVKVSCKASGYTFTSYIMHWVRQAPGQGLEWIGYINPYNDGTKYNEKFKGRVTLTRDKSTSTVYMELSSLRSEDTAVYYCARLGFTTRNAMDYWGQGTLVTVSS
VL: DIVMTQSPDSLAVSLGERATINCKSSQSLLNSGNQKNYLAWYQQKPGQPPKLLIYGASTRESGVPDRFTGSGSGTDFTLTISSLQAEDVAVYYCQNDHSYPFTFGQGTKLEIKR
B11: QP14651460 (antibody, V domains shown)
VH: EVQLVQSGAEVKKPGASVKVSCKASGYTFTSYIMHWVRQAPGQGLEWIGYINPYNDGTKYNEKFKGRVTLTSDKSTSTVYMELSSLRSEDTAVYYCARLGFTTRNAMDYWGQGTLVTVSS
VL: DIVMTQSPDSLAVSLGERATINCKSSQSLLNSGNQKNYLAWYQQKPGQPPKLLIYGASTRESGVPDRFSGSGSGTDFTLTISSLQAEDVAVYYCQNDHSYPFTFGQGTKLEIKR

The first experiment concerns the target T1, Claudin 18.2 (CLDN18.2), expressed on CHOS-CLDN 18.2 / HEK293-CLDN 18.2 / HCC827-CLDN 18.2 cells (human, UniProt P56856 1-261). The experiment can be described thus: ELISA.
Broadly, the EC50 is the concentration giving half of the maximal effect. A higher EC50 goes with a need for much substance. Turning to B1, the response was half-maximal at 0.106 µg/mL (EC50).
The molecule B2 registered an EC50 of 0.0977 µg/mL.
For B3, a half-maximal response (EC50) required 0.0995 µg/mL.

The next experiment concerns the target T1, Claudin 18.2 (CLDN18.2), expressed on …. Briefly: cell ELISA.
In the case of B4, the EC50 is 0.134 µg/mL.
As for B5, the midpoint of the response, the EC50, lay at 0.109 µg/mL.
Take B6: the EC50 is 0.17 µg/mL. This EC50 lies about 1.6-fold higher than the previous one.
The same measure, in the same setting: the result for B7 reads 0.145 µg/mL; that for B8, 0.119 µg/mL.
Take B9: the EC50 turned out to be 0.178 µg/mL. This EC50 and that of the molecule before are within 1.5-fold of each other.

Another experiment has the same target. The experiment can be described thus: cell ELISA. This is another data set of the same source. For orientation: In an ELISA, binding on a coated surface is turned into a signal by an enzyme label.
As for B8, the response was half-maximal at 0.179 µg/mL (EC50).

Another experiment shares this target. Briefly: ELISA. This is another data set of the same source.
With B10, the EC50 stood at 0.0783 µg/mL.
The same measure, in the same setting: the result for B11 reads 0.0904 µg/mL.
